From article doi:10.1101/2024.08.06.606614 (bioRxiv, 2024) come the findings set out here.

In data set [1] the target is HYDIN (mouse (endogenous in mouse sperm)) (UniProt Q80W93). Put plainly: cryo-EM structure.
The data set “cryo-EM structure” deals with the molecule itself. Description: cryo-EM structure.

On to HYDIN, Q80W93 1-5154, for which the stoichiometry N in data set [1] was 3.

B1: SPAG16 (natural protein)
chain: MAAPSGVPPLRVLEELGIGLSPTGEVTEAVTSEGAYYLEQVTITETSEDECEYEEIPDDNFSIPEGEEDLEKAIHIIGEQARDIHILEQQTILPARNVMQEAIEDFLCNFLIKMGMTRTLDCFQAEWYELIQKKGSDFKGLGNVPDVYSQVMLLETENKNLKKELKHFKQAAEKAKEDLLRTQKERDFHRMHHKRIVQEKNKLIADLKGLKLHYASYEPTIRVLHEKHHALLKEKMLTSLERDRAVGKISGLQATLKNIDMGHIQVPVIKGSYESASITRESGDRAGHSCEKENSSEGPTQKSLREAREEVGYKSKLKNEKKDSEFPVDMQPDPNVTSCTENVSAAKFDYKLNNIFRLHELPVSCIVMHPCRDYLISCSEDRLWKMVGLPQGNVLLTGSGHTDWLSGCCFHPSGSKLATSSGDSTIKLWDLNKGECTLTLEGHNHAVWSCTWHSCGDFVASASLDMTSKIWDVNSERCRYTLYGHTDSVNSIEFFPFSNILLTASADKTLSVWDARTGKCEQSLYGHMHSVNDATFTPRGHIIASCDARGVTKLWDFRKLIPIVSIDVGPSSGNEVNFDQSGRVLAQASANGIIHLLDLKSGQIHKLVGHESEVHSVVFSHLGENLYSGGSDGTIRLWI
On to B1, for which, in “cryo-EM structure”, the “stoichiometry N” value came to 2.

B2: GOT1L1 (putative aspartate aminotransferase) (natural protein)
chain: MTSLSVFRDVPTAQKLEGSLLKIYRQDGYPSKLFLAYKVCMTEEGHPWVSLVVHKTRLQIAEDPSLDYEYLPLVGLKSFIQSSLELLFGKHSEAIAEKRVGGVHIVGESGAFQLGAQFLKTWRKNVKIVCIVSCQKEQCGLIFQDMGFIVYEYSIWNASDLCSDPSMFVEVLQHIPVGSILVIGNITDCKFTQNQWTKLMSIIKSKQIFPFFDIPCQGLSTGDLEEDTKILQYFVSLGLEFFCSQSLSKNFGIYDEGVGILVVAALSNQHLLCVLSQLMDYVQALWGNPPATGARIITSILCNPALFGEWKQSLKGVVENMMLIKEKVKEKLRLLGTPGSWDHITRQSGTHGYLGLTYQQVEFLVKKKHIYLPKTSRINFTCINARNIDYITQSIHEAVMLTEG
Consider B2, for which the “stoichiometry N” value in “cryo-EM structure” came to 2.

B3: germ cell-less 1 (GMCL1) (natural protein)
chain: MGALSSRVLRPAGRTEQPEPTPGAGGAARRSDAGEDAGHSFCYCPGGRKRKRSSGTFCYCHPDSETDDDEDEGDEQQRLLNTPRRKKLKSTSKYIYQTLFLNGENSDIKICALGEEWSLHKIYLCQSGYFSSMFSGSWKESSMNIIELEIPDQNIDIEALQVAFGSLYRDDVLIKPSRVVAILAAACMLQLDGLIQQCGETMKETISVRTVCGYYTSAGTYGLDSVKKKCLEWLLNNLMTHQSVELFKELSINVMKQLIGSSNLFVMQVEMDVYTALKKWMFLQLVPSWNGSLKQLLTETDVWFSKWKKDFEGTTFLETEQGKPFAPVFRHLRLQYIISDLASARIIEQDSLVPSEWLAAVYKQQWLAMLRAEQDSEVGPQEINKEELEGNSMRCGRKLAKDGEYCWRWTGFNFGFDLLVTYTNRYIIFKRNTLNQPCSGSVSLQPRRSIAFRLRLASFDSSGKLICSRATGYQILTLEKDQEQVVMNLDSRLLIFPLYICCNFLYISPEKRTESNRHPENPGH
On to B3, for which the “stoichiometry N” value in the data set “cryo-EM structure” turned out to be 2.

B4: CFAP70 (natural protein)
chain: MDQTSSTTKIVHITVTNGYDLKGFKGDTPVTFVRAEFNQTVLGDSSKVTVSPEGTAKYNFTSNIDLSPDGGGALDDLAHKPLFLTVTEVLPKEKKQKDEKTLILGQAVVDLLPLLEGEESFETTVPLHPVPGSPLETPLPGSKQCSLDVKVFVAEPLLTPAQVSASNLLKVTLEAAYSVPESFIPVGPQQNYMVGLQVPSVGEKDYTMIFKNGNLKLGGEKEPVPRPKKWPIANILAPGASNIPDEFIVGGPYEEEEGELNHPEDREFRNQAECTKKRIVWDLESRCFLHPFAVASFQKRIADCRLWPVEITRVPLVVMPKAKPGKLEKIDDENQLSFHGVAYINMVPLLYPGVKKIRGAFHVYPYLDGTVFEKTKCLFSLFRDTGHHLVQNNKAGGLNSPLSKPLSKNLKEEKPGKDKDTEGRPRLGELQAPSIKSQSSDTPLESEAPLSHNLEGQQYIEAGTYIVLEIQLEKALVPKRMPEELARRVKEMIPPRPPLTRRTGGAQKAVSDYHTQIKSISRAILNEYYRMFGKQGPKLESDIDNETMEERKCQLNYELNCSGKYFAFKEQLKHAVVKIVREKYLKTTAFESQEELQTFISELYVFLVDQMHVALNQAVPDDVPSSTSTIQTSSEQLRLFAFEAEVNEKFEIAAMYYEERLVREPQNLENWLDYGAFCLLTEDNIKAQECFRKALSLNESHVDSLLLCGVLAILLENYEQAEIFFEDATCLEPTNVIAWTLLGLFYEIQNNDIRMEMAFHEAFKQLQARTLQTKLKSTVTIENMEEGVKVEPSFGPWGVVQESTTAIKTEGLSGMRPQSSHQLSPHTNMELHPQPQGPNTALSSLDEFLEESPKAQSESQEPMATGQPLEPSLVQRSSNALLKELTSKKDISKCQDSSAFSPPTQHVIAQPPVTIFMETIRFLMKVNAVQFVHRVLAHELLCPQGGPSCEYYLVLAQTHLLKKDFAKTEEYLQQAAQMDYLNPNVWGVKGHLYFLSGNHAEAKECYERTISFVVDASEMHFIFLRLGHIYLEEKEYENAKRTYMHACKRSPSCLTWLGLGIACYRLEELTEAEDALSEANALNNCNAEVWAYLALVCLKVGRQLEAEQAYKYTIKLKLKDQALLEEIHTVQEMVGFGNPSF
For B4, the “stoichiometry N” value in “cryo-EM structure” was determined as 2.

The stoichiometry N is the number of molecules, sites or subunits per partner or assembly.
